Measurements reported in patent US20020006638A1, “Methods for recombinant microbial production of fusion proteins and BPI-derived peptides” (priority 1998, published 2002).

Assays:
E. coli J5 = experiment: Radial diffusion assay, antibacterial activity; type: cell-based; details: order: XMP.284, XMP.13, XMP.391, XMP.366, XMP.353, XMP.406, XMP.407 (most to least)
Method: To assess the antibacterial activity of the recombinantly produced peptides, additional experiments are conducted with E. coli J5 or E. coli E104 cells in a radial diffusion assay. For these experiments, cultures of E. coli J5 were grown overnight in TYE broth (15 g tryptone, 10 g yeast extract, 5 g NaCl per liter) and then grown to mid logarithmic phase in TEA broth media (Simon et al., Proc. Nat'l. Acad. Sci. (USA), 51:877-883 (1964)). E. coli J5 cells at 2-3×10^5 cells/mL were added to molten 0.8% agarose containing nutrient broth. Serial dilutions of peptides were prepared in 0.15 M NaCl. Five μl of the diluted peptides, or as a control, saline alone, were added to 3 mm wells prepared in the hardened agarose (5 μl/well). The plates were sealed with parafilm to prevent drying and incubated at 37° C. for 24 hours. Zones of inhibition were measured and the net areas of inhibition determined by subtracting the area comprising the 3 mm well from the area encompassing the 3 mm well plus the inhibition zone. Recombinantly produced peptides are assayed for antibacterial activity and compared to the equivalent synthetic peptides. […] Synthetic peptides XMP.406 and XMP.407 have the same sequences as peptides prepared from the encoded fusion protein described in Example 1, Section 7 and Example 3.

gram-negative bacteria = details: broad range of gram-negative bacteria; Elsbach and Weiss (1992); cited from earlier work
[1] = system: Candida albicans and Candida parapsilosis; details: 10^−6 M; pH 7.0 or 5.5; cited from earlier work
[2] = system: Staphylococcus aureus (four strains), Staphylococcus epidermidis, Streptococcus faecalis, Bacillus subtilis, Micrococcus lysodeikiticus, and Listeria …; details: 10^−6 M or 160 μg/mL; pH of either 7.0 or 5.5; cited from earlier work
[3] = system: human, rabbit and sheep red blood cells and several human tumor cell lines; details: 10^−6 M; cited from earlier work

| Molecule | antibacterial activity, rank order of synthetic peptides (E. coli J5) | concentration at which anti-bacterial activity is exhibited (as low as) (gram-negative bacteria) | toxic effect on fungi [1] | toxic effect on gram-positive organisms [2] | toxicity to higher eukaryotic cells [3] |
| --- | --- | --- | --- | --- | --- |
| XMP.407: BPI 147-162, P @ 147 (S), A @ 153 (W), D @ 162 (I) (PKSKVGALIQLFHKKD) | the least bactericidal | – | – | – | – |
| XMP.284: BPI 149-161, K @ 152 (G) (SKVKWLIQLFHK) | the most antibacterial activity | – | – | – | – |
| BPI: bactericidal/permeability-increasing protein, isolated from granules of mammalian polymorphonuclear leukocytes, approximately 55 kD (protein, UniProt P17213 32-487, looked up) Bactericidal …: VNPGVVVRISQKGLDYASQQGTAALQKELKRIKIPDYSDSFKIKHLGKGHYSFYSMDIREFQLPSSQISMVPNVGLKFSISNANIKISGKWKAQKRFLKMSGNFDLSIEGMSISADLKLGSNPTSGKPTITCSSCSSHINSVHVHISKSKVGWLIQLFHKKIESALRNKMNSQVCEKVTNSVSSELQPYFQTLPVMTKIDSVAGINYGLVAPPATTAETLDVQMKGEFYSENHHNPPPFAPPVMEFPAAHDRMVYLGLSDYFFNTAGLVYQEAGVLKMTLRDDMIPKESKFRLTTKFFGTFLPEVAKKFPNMKIQIHVSASTPPHLSVQPTGLTFYPAVDVQAFAVLPNSSLASLFLIGMHTTGSMEVSAESNRLVGELKLDRLLLELKHSNIGPFPVELLQDIMNYIVPILVLPRVNEKLQKGFPLPTPARVQLYNVVLQPHQNFLLFGADVVYK | – | 10^−8 to 10^−9 M | no toxic effect | no toxic effect | non-toxic |
